Measured values from patent US20020183271A1, “Methods of treatment involving human MDA-7” (priority 2000, published 2002).

What was measured:
[1] = tested on: secretion of soluble MDA-7 protein; assay: Inhibition of glycosylation and secretion of MDA-7 protein; type: cell-based
From the text: Two antibiotics, Tunicamycin and Brefeldin A, have been used to provide a more detailed characterization of the secretion of soluble MDA-7. N-linked glycosylation plays an important role in a protein's ultimate processing, whether it is sorted to a lysosomal pathway, or translocated to the cell surface or secreted. Using Tunicamycin, the N-linked glycosylation process in the […] can be inhibited, thus inhibiting protein secretion or other sugar-dependent sorting processes.

[2] = tested on: Human umbilical vein endothelial cells (HUVEC); assay: Tube formation assay (endothelial differentiation), vectors and Suramin; type: cell-based; conditions: vectors 10,000 vp/cell; Suramin 50 μM; Matrigel
Description: Human umbilical vein endothelial cells (HUVECs; Clonetics) were seeded on 1% gelatin-coated plates and incubated at 37° C. for 24 hours. […] Cells exposed to medium alone served as negative controls while cells exposed to Suramin (50 μM) served as positive controls. After a 48-hour incubation period (37° C. in serum-containing medium), infected cells were harvested, counted, and added to Matrigel-coated 24-well plates in triplicate (1.2×10^5 cells per well). Twenty-four hours later, cells were fixed with 10% buffered formalin and examined for differentiation (tube formation) by using an Olympus IX-70 inverted bright-field microscope at 4× and 10× magnification. cl Example 1
Tube Formation Assay. Human umbilical vein endothelial cells (HUVECs; Clonetics) were seeded on 1% gelatin-coated plates and incubated at 37° C. for 24 hours. After incubation, cells were infected for 1 hour with Ad-luc or Ad-mda 7 at 10,000 vp/cell in serum-free medium. Cells exposed to medium alone served as negative controls while cells exposed to Suramin (50 μM) served as positive controls. After a 48-hour incubation period (37° C. in serum-containing medium), infected cells were harvested, counted, and added to Matrigel-coated 24-well plates in triplicate (1.2×10^5 cells per well). […]

T47D = assay: Ad-mda7 growth inhibition, 3H-thymidine incorporation assay; type: cell-based, human; conditions: T47D cells; four days after treatment
Description: (§1) Cells were either plated at 500-2000 cells/well in 96-well format for Tritiated thymidine incoporation-Cell Proliferation Assay or plated at 10^5-10^6 cells/well in a 6 well plate for protein expression or Apoptosis assays or plated at 10^4 cells/well for Alamar-blue assay. […]
(§2) Growth inhibition of cells after treatment is measured by analysis of DNA-synthesis. Briefly, for the ^3H-thymidine incorporation assay cells will be plated at 200-5000 cell per well in a 96-well format and grown in DMEM/10% FBS in a 5% CO2 incubator at 37° C. overnight. The next day the media is aspirated and replace with […] DMEM/10% FBS containing the appropriate adenovirus at the appropriate MOI. Cells will be incubated with infecting media for 1 to 4 hrs and then diluted to […] total volume and grown overnight. Media is replaced with DMEM/10% FBS/mCi ^3H-thymidine and grown for 16 to 18 hrs. Stock solution of 100 uCi/mL of H3-thymidine (Amersham) is prepared by dilution into high glucose DMEM (GIBCO). ^3H-Thymidine was added to each well at a final concentration of 1 μCi/mL. The reaction is stopped 15 hours later by removal of the supernatant from recipient cells. […] The filter were dried and analyzed in Matrix 9600 (Packard) and cell proliferation using Viral Particles/cell against Tritiated Thymidine uptake counts were plotted.

MCF-7 = assay: as above; type: cell-based, human; conditions: MCF-7 cells; four days after treatment; tamoxifen 1 ng/ml
Description: as §1, §2

H1299 cells = assay: Soluble MDA-7 supernatant killing, trypan blue exclusion; type: cell-based, human; conditions: supernatants, 48 hours
Description: FIG. 11A. Soluble MDA-7 (sMDA7) kills tumor cells. […] All the supernatants used in this experiment were filtered through a 0.1 micron filter prior to challenge with H1299 cells. FIG. 11B. H1299 cells were challenged with soluble MDA-7 supernatant from four different stocks and percentage dead cells evaluated after 48 hours: 1) 293*NF: Non-filtered supernatant obtained from modified 293 cells (cells were grown in serum-free conditions); 2) 293*F: 0.1 micron filtered supernatant obtained from modified 293 cells; 3) 293F: 0.1 micron filtered supernatant obtained from regular 293 cells (FBS+); and 4) H1299F: 0.1 micron filtered supernatant obtained from H1299 cells. D0 is non-diluted material whereas D1:1; D1:5, D1:10 indicate the dilutions used.
The secreted form of MDA-7 (sMDA-7) was produced using various cell lines and evaluated for anti-tumor activity. Soluble MDA-7 was analyzed for its anti-proliferative effects on H1299 cells. Briefly, H1299 cells were plated at cell density of 10^3 cells/chamber in Nunc chamber slides. 24 hours later, the cells were challenged with supernatants obtained from H1299 cells transduced with either Ad-mda-7 or Ad-luc (at 1000 vp/cell infection). Ad-mda7 and Ad-luc viruses were also used as additional controls. […]

HUVEC cells = assay: Tube formation with purified MDA-7 protein; type: cell-based, human
Description: HUVEC cells were administered increasing amounts of MDA-7 protein purified from 293-mda7 cells. Doses that were evaluated ranged from 0.5-100 ng/ml. The ED50 of MDA-7 ranged from 5-50 ng/ml. Endothelial differentiation in the cells was inhibited by MDA-7 protein, but not control cells, based on tube formation.
HUVEC cells were given varying doses of MDA-7 protein purified from 293-mda7 cells (lots 1-6) or from baculovirus exoressing mda-7. A positive control of Ad-mda7 and a negative control of Ad-luc were included in most assays.

PBMC [3] = assay: PBMC proliferation (thymidine uptake); type: cell-based, human; conditions: 4 days of coculture; three donors
From the text: Some cytokines can also function as growth factors. Therefore the proliferative simulation function of MDA-7 was addressed using PBMC. IL-10 was included as a negative cytokine control.

PBMC [4] = assay: Secondary cytokine secretion from PBMC (ELISA); type: cell-based, human
Description: FIG. 24. Effect of MDA-7 and IL-10 on inflammatory cytokine secretion from PBMC. Two ml/well (2×10^6 cells/ml) PBMC were plated in a 24 well plate and cultured untreated or with indicated amounts of MDA-7 (B 2 ng/ml; D,F 20 ng/ml), 5 μg/ml LPS, 5 μg/ml PHA, 500 U/ml IL-10 (˜17 ng/ml; R & D Systems, Minneapolis, Minn.) or combination of IL-10 and MDA-7. Supernatants were harvested at 48 hours and analyzed for cytokine content by ELISA (Endogen, Corp) according to manufacturer's instructions. Data from one representative donor are reported. * Indicates values above standard curve.
FIG. 25. […] Human PBMC were treated with 5 μg/ml LPS, 500 U/ml IL-10, 5 ng/ml MDA-7 or combinations for 48 hours. An equal volume of an S column fraction not containing MDA-7 as determined by Western (an MDA-7 Neg Fraction) was used as a control for buffer/salt content. Supernatants were harvested at 48 hours and analyzed for cytokine content by ELISA (Endogen, Corp) according to manufacturer's instructions. Data from one representative donor are reported. * Indicates value greater than 500 pg/ml IL-1β. ** Actual values are 539 pg/ml IL-12 and 893 pg/ml GM-CSF. Data from one representative donor are reported.
Activation of PBMC: PBMC were isolated from the peripheral blood of normal healthy donors by centrifugation over Histopaque (Sigma, St. Louis, Mo.). Cells were cultured at a concentration of 1×10^6 cells/ml in RPMI-1640 based media supplemented with L-glutamine, Hepes, penicillin, streptomycin, and 10% human AB serum (Pelfreez, Brown Deer, Wis.) for 72 hr in the presence of PHA-P at 5 μg/ml or LPS 10 μg/ml (both from Sigma, St. Louis, Mo.). Four hours prior to harvest Brefeldin A (BFA, Sigma-Aldrich) was added at a final concentration of 10 μg/ml. The supernatants as well as cells were then harvested.
ELISA assays. The ELISA reaction to detect human MDA-7 was carried out in 96-well plates using standard techniques and an antibody pair selected for sentivity. Elisa assays for cytokines were perfomed in an identical manner, employing commercially available kits as designated in the figure legends.

[5] = 500 U/ml IL-10, 5 ng/ml MDA-7, 48 hours
[6] = 500 U/ml IL-10 added to PBMC stimulated by MDA-7

C[C@H]1CCC/C=C/[C@@H]2C[C@H](O)C[C@H]2[C@H](O)/C=C/C(=O)O1 [Brefeldin A]
secretion of soluble MDA-7 protein [1]: effectively inhibit the secretion of soluble MDA-7 protein

Cc1ccc(C(=O)Nc2ccc(S(=O)(=O)O)c3cc(S(=O)(=O)O)cc(S(=O)(=O)O)c23)cc1NC(=O)c1cccc(NC(=O)Nc2cccc(C(=O)Nc3cc(C(=O)Nc4ccc(S(=O)(=O)O)c5cc(S(=O)(=O)O)cc(S(=O)(=O)O)c45)ccc3C)c2)c1 [Suramin]
endothelial tube formation [2]: known inhibitor of tube formation

CC/C(=C(\c1ccccc1)c1ccc(OCCN(C)C)cc1)c1ccccc1 [tamoxifen]
DNA replication (tritiated thymidine assay) (T47D): minimal effect
DNA replication (tritiated thymidine assay) (MCF-7): little effect

Tunicamycin
secretion of soluble MDA-7 protein [1]: effectively inhibit the secretion of soluble MDA-7 protein

B1: soluble MDA-7: secreted form of MDA-7 in filtered supernatants of cells transduced with Ad-mda7 (protein, UniProt Q13007 52-206, looked up)
Interleukin-24: QEFHFGPCQVKGVVPQKLWEAFWAVKDTMQAQDNITSARLLQQEVLQNVSDAESCYLVHTLLEFYLKTVFKNYHNRTVEVRTLKSFSTLANNFVLIVSQLQPSQENEMFSIRDSAHRRFLLFRRAFKQLDVEAALTKALGEVDILLTWMQKFYKL
killing of H1299 cells (H1299 cells): concentration-dependent bystander killing effect
killing of H1299 cells (H1299 cells; listed as soluble MDA-7 protein): showed H1299 killing

B2: MDA-7: human MDA-7 protein secreted by and purified from stably transfected 293 cells (293-mda7) (protein)
chain: QEFHFGPCQVKGVVPQKLWEAFWAVKDTMQAQDNITSARLLQQEVLQNVSDAESCYLVHTLLEFYLKTVFKNYHNRTVEVRTLKSFSTLANNFVLIVSQLQPSQENEMFSIRDSAHRRFLLFRRAFKQLDVEAALTKALGEVDILLTWMQKFYKL
lowest doses inhibiting tube formation (HUVEC cells; MDA-7 protein from 293-mda7 cells (lots 1-6) or baculovirus): 0.5 to 10 ng/mL
ED50 (inhibition of endothelial differentiation, tube formation) (HUVEC cells; MDA-7 protein purified from 293-mda7 cells, doses 0.5-100 ng/ml): 5 to 50 ng/mL
proliferation (thymidine uptake) (PBMC [3]): did not induce significant proliferation
IL-6 secretion (PBMC [4]; 2 ng/ml of MDA-7, above the standard curve of the ELISA kit): greater than 800 pg/ml
IL-1β, IL-12 and GM-CSF secretion (PBMC [4]; 5 ng/ml MDA-7, 48 hours): induces IL-1β, IL-12 and GM-CSF secretion
MDA-7 concentration stimulating maximal IL-6 secretion (PBMC [4]; 48 hours, ELISA): 200 pg/mL
dose required to achieve optimal levels of TNFα and IFNγ secretion (PBMC [4]; 48 hours, ELISA): 2 ng/mL
induction of TNFα compared with LPS (PBMC [4]; LPS 5 μg/ml positive control): more potent inducer than the positive stimulation control LPS

B3: recombinant MDA-7 expressed in E. coli and S. cerevisiae: recombinant MDA-7 expressed in E. coli and S. cerevisiae, used in preliminary experiments (protein, UniProt Q13007 52-206, looked up)
Interleukin-24: QEFHFGPCQVKGVVPQKLWEAFWAVKDTMQAQDNITSARLLQQEVLQNVSDAESCYLVHTLLEFYLKTVFKNYHNRTVEVRTLKSFSTLANNFVLIVSQLQPSQENEMFSIRDSAHRRFLLFRRAFKQLDVEAALTKALGEVDILLTWMQKFYKL
proliferation (thymidine uptake) (PBMC [3]): did not show a proliferative response
secondary cytokine production, preliminary experiments (PBMC [4]; very high doses (μg/ml quantities) required): robust production of IL-6, TNFα, and IFNγ, very low levels of GM-CSF and IL-10, and no IL-2, IL-4, and IL-5

B4: IL-10: Human recombinant IL-10 purchased from R&D Systems (protein, UniProt P22301 19-178, looked up)
Interleukin-10: SPGQGTQSENSCTHFPGNLPNMLRDLRDAFSRVKTFFQMKDQLDNLLLKESLLEDFKGYLGCQALSEMIQFYLEEVMPQAENQDPDIKAHVNSLGENLKTLRLRLRRCHRFLPCENKSKAVEQVKNAFNKLQEKGIYKAMSEFDIFINYIEAYMTMKIRN
proliferation (thymidine uptake) (PBMC [3]): did not induce increased thymidine uptake
effect of IL-10 on GM-CSF production (PBMC [4]; [5]): partially inhibited
effect of IL-10 on IL-1β production (PBMC [4]; [5]): partially inhibited
effect of IL-10 on IL-12 production (PBMC [4]; [5]): completely inhibited
effect of IL-10 on IFNγ induction by MDA-7 (PBMC [4]; [6]): completely abrogated
effect of IL-10 on IL-6 induction by MDA-7 (PBMC [4]; [6]): partially blocked
effect of IL-10 on TNFα induction by MDA-7 (PBMC [4]; [6]): completely abrogated
